According to the RNAGym collection of RNA variant scans (doi:10.1073/pnas.2313332121):

B1: TPR t1 (parent)
chain: GACCAAUCUGCCCUCAGAGCUCGAGAACAUCUUCGGAUGCAGAGGAGGCAGGCUUCGGUGGCGCGAUAGCGCCAACGUCCUCAACCUCCAAUGCAUCCCACCACAUGAUGAUGCCUGAAGAGCCUUGGUUUUUUG

Variants of: B1
Assay: polymerase ribozyme fitness, log enrichment relative to wild type (log ratio); higher = more active; in vitro selection for triplet polymerase activity
Summary of the method: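 Fitness measures genotype enrichment against wild-type enrichment on a logarithmic scale, with inverse-variance-weighted averaging of replicates. The logarithm is base 2, and genotypes were kept only with ≥10 input reads and ≥1 read per output in Illumina sequencing. The sequenced libraries came from one triplicate in vitro selection round, including frozen incubation at −7 °C, of PCR-built, transcribed mutant libraries of each subunit of a heterodimeric triplet polymerase ribozyme.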
With C8G C53A the “polymerase ribozyme fitness (log ratio)” value was 0.628. For C8A C62A U130G, the “polymerase ribozyme fitness (log ratio)” value was -0.621. With C8G G23A G61U U109A U112A the “polymerase ribozyme fitness (log ratio)” value was -6.91. In the case of C8G A37U C49U U54G U133G, the “polymerase ribozyme fitness (log ratio)” value is reported as -1.23. In the case of C8A C76U U87A U112A A121C U133G, the “polymerase ribozyme fitness (log ratio)” value is reported as 0.984. For C8G C73U A91G C101G, the “polymerase ribozyme fitness (log ratio)” value was -2.3. With C8A A50U U59C G63C the “polymerase ribozyme fitness (log ratio)” value was -4.31. For C8G A111C G113U, the “polymerase ribozyme fitness (log ratio)” value was -3.45. With C8U G48C C56A the “polymerase ribozyme fitness (log ratio)” value was -0.762. For C8A C22G C31U G36C G61C, the “polymerase ribozyme fitness (log ratio)” value was -6.63. For C8A A37U C104A, the “polymerase ribozyme fitness (log ratio)” value was -1.64. In the case of C8A C13U G36C, the “polymerase ribozyme fitness (log ratio)” value is reported as -0.24. With C8U C85U C124G the “polymerase ribozyme fitness (log ratio)” value was 2.05. In the case of C8U A119G U126G G127U, the “polymerase ribozyme fitness (log ratio)” value is reported as -0.0945. For C8G C11A G51A G71U U106G G113U U125G, the “polymerase ribozyme fitness (log ratio)” value was -6.93. For C8U C12A G42A C70U U92A, the “polymerase ribozyme fitness (log ratio)” value was -4.6. With C8G C82U C97U G127C the “polymerase ribozyme fitness (log ratio)” value was -0.232. In the case of C8A A46G C101U, the “polymerase ribozyme fitness (log ratio)” value is reported as -0.289. With C8G C89A C114U the “polymerase ribozyme fitness (log ratio)” value was -0.406. With C8U A121U the “polymerase ribozyme fitness (log ratio)” value was 2.15. With C8A C12U C40A the “polymerase ribozyme fitness (log ratio)” value was -0.186. In the case of C8A G39U C64U A111U U116G U129G, the “polymerase ribozyme fitness (log ratio)” value is reported as -5.99. With C8G U32G C101U C124A the “polymerase ribozyme fitness (log ratio)” value was -4.92. In the case of C8U G36A A66C A84C G117A, the “polymerase ribozyme fitness (log ratio)” value is reported as -3.32. In the case of C8G U30C, the “polymerase ribozyme fitness (log ratio)” value is reported as -2.51. In the case of C8A G69U C88G G128C, the “polymerase ribozyme fitness (log ratio)” value is reported as -3.18. For C8U A24G U112G, the “polymerase ribozyme fitness (log ratio)” value was -0.0167. For C8A U59G C114U, the “polymerase ribozyme fitness (log ratio)” value was -0.559. In the case of C8G A46G A83G U126G G127A, the “polymerase ribozyme fitness (log ratio)” value is reported as -1.72. In the case of C8G G61A, the “polymerase ribozyme fitness (log ratio)” value is reported as 0.403. In the case of C8G G61C, the “polymerase ribozyme fitness (log ratio)” value is reported as -1.09. With C8G G63U G77C U129C the “polymerase ribozyme fitness (log ratio)” value was -2.81. In the case of C8A C64A U112C U125A, the “polymerase ribozyme fitness (log ratio)” value is reported as -5.5. With C8U A74G C123G the “polymerase ribozyme fitness (log ratio)” value was 1.71. In the case of C8G G58A U96A, the “polymerase ribozyme fitness (log ratio)” value is reported as 0.339. With C8G U38A A100U the “polymerase ribozyme fitness (log ratio)” value was -2.56. For C8U G51A C56A G120U, the “polymerase ribozyme fitness (log ratio)” value was -3.67. For C8U G57U G110U, the “polymerase ribozyme fitness (log ratio)” value was -1.01. For C8G C114A, the “polymerase ribozyme fitness (log ratio)” value was 0.0806. For C8G G10C U55G A91C, the “polymerase ribozyme fitness (log ratio)” value was -1.21. In the case of C8G A74U, the “polymerase ribozyme fitness (log ratio)” value is reported as 0.0385. In the case of C8G G48A G63C C72U C88A, the “polymerase ribozyme fitness (log ratio)” value is reported as -4.05. For C8A C94A A119G, the “polymerase ribozyme fitness (log ratio)” value was -0.132. In the case of C8U G52A A74U U112C, the “polymerase ribozyme fitness (log ratio)” value is reported as 1.59. For C8U C12G, the “polymerase ribozyme fitness (log ratio)” value was 0.586. In the case of C8G C102U, the “polymerase ribozyme fitness (log ratio)” value is reported as -1.57. In the case of C8U C12G U14G G60A U78G G113A, the “polymerase ribozyme fitness (log ratio)” value is reported as -3.01. In the case of C8G C11G A41C C49A, the “polymerase ribozyme fitness (log ratio)” value is reported as -0.887. With C8G C104A the “polymerase ribozyme fitness (log ratio)” value was -0.951. For C8U C82U G113U, the “polymerase ribozyme fitness (log ratio)” value was -2.67. For C8A G48U U59G C73G A105C U112C G120A, the “polymerase ribozyme fitness (log ratio)” value was -2.35. In the case of C8G A46U C104A U106C U116C, the “polymerase ribozyme fitness (log ratio)” value is reported as -3.35. With C8A C11U G17C the “polymerase ribozyme fitness (log ratio)” value was -2.13. With C8U G42U A50U the “polymerase ribozyme fitness (log ratio)” value was -3.49. With C8G G65C C114U C123A the “polymerase ribozyme fitness (log ratio)” value was -7.69. With C8G U78C C85U G113U U132A the “polymerase ribozyme fitness (log ratio)” value was -2.41. For C8A G71A C104A, the “polymerase ribozyme fitness (log ratio)” value was -2.19. For C8G G39A G117U U132A, the “polymerase ribozyme fitness (log ratio)” value was 0.363. For C8G U9G C12A G69A C88G U132A, the “polymerase ribozyme fitness (log ratio)” value was -4.01. With C8A C56G the “polymerase ribozyme fitness (log ratio)” value was 0.28. In the case of C8U C49U G71C G117U G120A C124A, the “polymerase ribozyme fitness (log ratio)” value is reported as -1.83. For C8G C12G A27U C64U, the “polymerase ribozyme fitness (log ratio)” value was -1.4. With C8G C56G G63C U126C the “polymerase ribozyme fitness (log ratio)” value was -3.33. For C8G C12U A68G G122A C123U, the “polymerase ribozyme fitness (log ratio)” value was -1.28. With C8G A91U A95C the “polymerase ribozyme fitness (log ratio)” value was -1.32. For C8U C11A, the “polymerase ribozyme fitness (log ratio)” value was 0.824. With C8G G17U U59G C115G A118G the “polymerase ribozyme fitness (log ratio)” value was 0.49. With C8G A91G C115U the “polymerase ribozyme fitness (log ratio)” value was -0.682. For C8U C72A C98U U116A G128C, the “polymerase ribozyme fitness (log ratio)” value was -6.24. With C8U G57U U112A the “polymerase ribozyme fitness (log ratio)” value was 1.64. With C8G C82A C97A the “polymerase ribozyme fitness (log ratio)” value was -4.13. With C8G G52U C64U C73U U96G the “polymerase ribozyme fitness (log ratio)” value was -1.4. In the case of C8A A41U U112C, the “polymerase ribozyme fitness (log ratio)” value is reported as 0.774. In the case of C8G A43U, the “polymerase ribozyme fitness (log ratio)” value is reported as -0.695. For C8G G63U, the “polymerase ribozyme fitness (log ratio)” value was -0.674. In the case of C8A U21C C62U A83G G117A, the “polymerase ribozyme fitness (log ratio)” value is reported as -1.21. In the case of C8A G10A G47A, the “polymerase ribozyme fitness (log ratio)” value is reported as -1.74. In the case of C8U G44U C88G, the “polymerase ribozyme fitness (log ratio)” value is reported as -1.96. For C8A C34G G110C U129G, the “polymerase ribozyme fitness (log ratio)” value was -8.1. For C8U C64U U96C, the “polymerase ribozyme fitness (log ratio)” value was -0.074. With C8G C124A the “polymerase ribozyme fitness (log ratio)” value was 2.31. For C8U A16U A37U G52C C56G C79A G110U U126A, the “polymerase ribozyme fitness (log ratio)” value was -4.2. For C8G G110C, the “polymerase ribozyme fitness (log ratio)” value was -2.74. For C8U A46G, the “polymerase ribozyme fitness (log ratio)” value was -0.00753.
